Laboratory results from US20120219562A1 (AbbVie / Abbott, published 2012).
Changes are numbered by the printed parent chain. Values belong to the binder of their own block, whether it stands above or below them.

Tests used:
[1] = target: T1, human interleukin 12 (p70 heterodimer of p35 and p40) (human, UniProt P29459 23-219; P29460 23-328); assay: SPR (BIAcore), off-rate
T1 construct: Recombinant human IL-12; also called hIL-12; IL-12
T1 sequence (looked up) 1: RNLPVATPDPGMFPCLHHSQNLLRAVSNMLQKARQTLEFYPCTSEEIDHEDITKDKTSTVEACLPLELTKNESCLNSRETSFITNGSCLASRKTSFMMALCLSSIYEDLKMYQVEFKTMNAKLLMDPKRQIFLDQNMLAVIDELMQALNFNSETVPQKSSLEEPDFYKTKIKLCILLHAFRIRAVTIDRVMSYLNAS
T1 sequence (looked up) 2: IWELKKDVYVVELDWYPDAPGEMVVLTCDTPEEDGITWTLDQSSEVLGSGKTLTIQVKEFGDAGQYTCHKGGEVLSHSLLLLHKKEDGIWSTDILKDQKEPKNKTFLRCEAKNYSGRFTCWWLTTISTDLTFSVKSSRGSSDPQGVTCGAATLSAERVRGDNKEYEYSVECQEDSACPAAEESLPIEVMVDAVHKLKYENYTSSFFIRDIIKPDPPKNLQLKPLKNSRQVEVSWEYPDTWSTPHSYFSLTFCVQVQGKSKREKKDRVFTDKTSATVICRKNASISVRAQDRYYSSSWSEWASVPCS

human interleukin 12 = target: T2, human interleukin 12 (human, UniProt P29459 23-219; P29460 23-328); assay: SPR (BIAcore)
T2 construct: heterodimer of p35 and p40 linked by a disulfide bridge; also called hIL-12; IL-12
T2 sequence (looked up) 1: T1 sequence (looked up) 1
T2 sequence (looked up) 2: T1 sequence (looked up) 2

B4: M2 B6 (antibody, V domains shown)
VH: QVQLVQSGGGVVQPGRSLRLSCAASGFTFSSYGMHWVRQAPGKGLEWVAFIRYDGSNKYYADSVKGRFTISRDNSKNTLYLQMKSLRAEDTAVYYCKTHGSHDNWGQGTMVTVSS
VL: SYVLTQPPSVSGTPGQRVTISCSGGRSNIGSNTVKWYQQLPGTAPKLLIYGNDQRPSGVPDRFSGSKSGTSASLAITGVQAEDEADYYCQSYDRGLTASRVFGTGTKVTVL
- koff (human interleukin 12): 0.0281 s⁻¹

B6: M2 B3 (antibody, V domains shown)
VH: B4 VH
VL: SYVLTQPPSVSGTPGQRVTISCSGGRSNIGSNTVKWYQQLPGTAPKLLIYGNDQRPSGVPDRFSGSKSGTSASLAITGVQAEDEADYYCQSYDIGMTGSRVFGTGTKVTVLG
- koff (human interleukin 12): 0.046 s⁻¹

B7: M2 D4 (antibody, V domains shown)
VH: B4 VH
VL: B6 VL with D93E, I94T, G95S, M96F
- koff (human interleukin 12): 0.0581 s⁻¹

B8: M2 E2 (antibody, V domains shown)
VH: B4 VH
VL: B4 VL with R94N, L96F, A98G
- koff (human interleukin 12): 0.0477 s⁻¹

B9: M2 D2 (antibody, V domains shown)
VH: B4 VH
VL: B6 VL with G95R, M96S
- koff (human interleukin 12): 0.0385 s⁻¹

B11: M2 F1 (antibody, V domains shown)
VH: B4 VH
VL: B6 VL with I94S, G95D, M96V
- koff (human interleukin 12): 0.0616 s⁻¹

B12: M2 E6 (antibody, V domains shown)
VH: B4 VH
VL: B6 VL with I94T, M96F, G98K
- koff (human interleukin 12): 0.00977 s⁻¹

B13: M2 D1 (antibody, V domains shown)
VH: B4 VH
VL: B6 VL with G95R, M96F
- koff (human interleukin 12): 0.0371 s⁻¹

B17: M2 D5 (antibody, V domains shown)
VH: B4 VH
VL: B6 VL with I94S, G95S, M96S
- koff (human interleukin 12): 0.0518 s⁻¹

B19: M2 B5 (antibody, V domains shown)
VH: B4 VH
VL: B6 VL with I94S, M96V
- koff (human interleukin 12): 0.00838 s⁻¹

B20: M2 D6 (antibody, V domains shown)
VH: B4 VH
VL: B6 VL with I94S, M96F, G98A
- koff (human interleukin 12): 0.0501 s⁻¹

B21: M2 A2 (antibody, V domains shown)
VH: B4 VH
VL: B6 VL with I94R, M96I, T97H
- koff (human interleukin 12): 0.04 s⁻¹

B25: C2 (antibody, V domains shown)
VH: B4 VH
VL: B4 VL with T97N, A98P, R100A, V101T
- koff (human interleukin 12): 0.00223 s⁻¹

B28: M2 A5 (antibody, V domains shown)
VH: B4 VH
VL: B6 VL with M96S
- koff (human interleukin 12): 0.0401 s⁻¹

B29: M2 C5 (antibody, V domains shown)
VH: B4 VH
VL: B6 VL with I94T, G95A, M96L
- koff (human interleukin 12): 0.0471 s⁻¹

B33: M2 B1 (antibody, V domains shown)
VH: B4 VH
VL: B6 VL with I94S, M96L
- koff (human interleukin 12): 0.00797 s⁻¹

B34: M2 E1 (antibody, V domains shown)
VH: B4 VH
VL: B6 VL with S91T, I94K, M96F, R100S
- koff (human interleukin 12): 0.0532 s⁻¹

B37: M2 D3 (antibody, V domains shown)
VH: B4 VH
VL: B6 VL with I94N, G95R, M96L
- koff (human interleukin 12): 0.0333 s⁻¹

Now from value to binder:

- koff [1]: 0.000226 s⁻¹
B1: SEQ ID NO: 477 (Y61, T at L30) (antibody, V domains shown)
VH: B4 VH
VL: B6 VL with S31T, I94R, M96T, T97H, G98P, S99A, R100L, V101L

- koff (human interleukin 12): 0.0063 s⁻¹
B2: 73-G6 (antibody, V domains shown)
VH: B4 VH with K97T, H99S, H102Y, N104Y
VL: B6 VL with D93N, I94T, G95D, M96F

- koff (human interleukin 12): 0.0031 s⁻¹
B3: C10 (antibody, V domains shown)
VH: B4 VH
VL: B6 VL with I94R, M96N, T97S, G98P, S99I, R100P, V101T

- koff (human interleukin 12): 0.00658 s⁻¹
B5: 73-G4 (antibody, V domains shown)
VH: B4 VH with K97T, H99S, H102Y, N104Y
VL: B6 VL with I94M, G95R, M96F

- koff (human interleukin 12): 0.00323 s⁻¹
B10: C4 (antibody, V domains shown)
VH: B4 VH
VL: B4 VL with L96T, T97P, A98N, S99N, R100S, V101F

- koff (human interleukin 12): 0.0008 s⁻¹
B14: 43-E9 (antibody, V domains shown)
VH: B4 VH
VL: B6 VL with I94R, M96T, T97I, G98P, R100I, V101E

- koff (human interleukin 12): 0.00601 s⁻¹
B15: 73-G5 (antibody, V domains shown)
VH: B4 VH with K97T, H99S, H102Y, N104Y
VL: B6 VL with Q90H, Y92S, I94S, G95D, M96S

- koff (human interleukin 12): 0.00685 s⁻¹
B16: 73-H3 (antibody, V domains shown)
VH: B4 VH with K97T, H99S, H102Y, N104Y
VL: B6 VL with Q90H, I94N, M96F

- koff (human interleukin 12): 0.0008 s⁻¹
B18: 43-E3 (antibody, V domains shown)
VH: B4 VH
VL: B6 VL with I94R, M96S, T97H, G98P, S99A, R100A, V101E

- koff (human interleukin 12): 0.00708 s⁻¹
B22: 73-F3 (antibody, V domains shown)
VH: B4 VH with K97T, H99S, H102Y, N104Y
VL: B6 VL with I94A, G95P, M96W, T97S

- koff (human interleukin 12): 0.0099 s⁻¹
B23: M2 H5 (antibody, V domains shown)
VH: B4 VH
VL: B6 VL with I94A, M96F

- koff (human interleukin 12): 0.00587 s⁻¹
B24: 73-F6 (antibody, V domains shown)
VH: B4 VH with K97T, H99S, H102Y, N104Y
VL: B6 VL with Q90H, I94M, M96F

- koff (human interleukin 12): 0.00758 s⁻¹
B26: B6 (antibody, V domains shown)
VH: B4 VH
VL: B4 VL with R94S, L96S, T97L, A98R, S99R, R100I, V101L

- koff (human interleukin 12): 0.00484 s⁻¹
B27: 73-C5 (antibody, V domains shown)
VH: B4 VH with K97T, H99S, H102Y, N104Y
VL: B6 VL with Q90H, Y92H, I94R, G95D, M96F

- koff (human interleukin 12): 0.00237 s⁻¹
B30: A8 (antibody, V domains shown)
VH: B4 VH
VL: B4 VL with L96K, T97S, A98N, S99K, R100M, V101L

- koff (human interleukin 12): 0.00593 s⁻¹
B31: 73-H2 (antibody, V domains shown)
VH: B4 VH with K97T, H99S, H102Y, N104Y
VL: B6 VL with I94S, M96F

- koff (human interleukin 12): 0.0035 s⁻¹
B32: 73-G3 (antibody, V domains shown)
VH: B4 VH with K97T, H99S, H102Y, N104Y
VL: B6 VL with Q90H, I94T, G95R, M96F

- koff (human interleukin 12): 0.0032 s⁻¹
B35: 136-9 (antibody, V domains shown)
VH: B4 VH with K97T, N104D
VL: B4 VL with S91T, R94I, G95S, L96E, T97S, A98G

- koff (human interleukin 12): 0.00398 s⁻¹
B36: 73-G2 (antibody, V domains shown)
VH: B4 VH with K97T, H99S, H102Y, N104Y
VL: B6 VL with Q90H, S91T, Y92N, I94S, M96F

- koff (human interleukin 12): 0.00374 s⁻¹
B38: 73-F5 (antibody, V domains shown)
VH: B4 VH with K97T, H99S, H102Y, N104Y
VL: B6 VL with I94S, G95D, M96F, R100K
